According to patent US20230201364A1:

Key:
[1] = target: Fc gamma receptor IIb (FcgRIIb, CD32b) (human) (UniProt P31994); assay: AlphaLISA competition or analogous assay for FcγRIIb (not described)
[2] = target: recombinant biotinylated human neonatal Fc receptor (FcRn) (human) (UniProt P55899); assay: AlphaLISA competition at pH 6; test molecule titrated against human IgG acceptor beads for biotinylated human FcRn
[3] = target: recombinant biotinylated human Fc gamma receptor IIIa (FcγRIIIa/CD16) (human) (UniProt P08637); assay: AlphaLISA competition; test molecule titrated against human IgG Fc acceptor beads for biotinylated FcγRIIIa
Sequence of recombinant biotinylated human Fc gamma receptor IIIa (FcγRIIIa/CD16) (human) (P08637 17-208 limits assumed): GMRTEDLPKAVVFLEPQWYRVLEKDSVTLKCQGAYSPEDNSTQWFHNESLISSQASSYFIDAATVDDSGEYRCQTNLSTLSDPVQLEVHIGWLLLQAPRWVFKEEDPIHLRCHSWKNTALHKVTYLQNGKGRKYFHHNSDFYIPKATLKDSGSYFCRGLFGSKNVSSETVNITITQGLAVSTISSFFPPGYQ

[4] = target: recombinant biotinylated human Fc gamma receptor I (FcγRI/CD64) (human) (UniProt P12314); assay: AlphaLISA competition; test molecule titrated against human IgG Fc acceptor beads for biotinylated FcγRI
Sequence of recombinant biotinylated human Fc gamma receptor I (FcγRI/CD64) (human) (P12314 16-288 limits assumed): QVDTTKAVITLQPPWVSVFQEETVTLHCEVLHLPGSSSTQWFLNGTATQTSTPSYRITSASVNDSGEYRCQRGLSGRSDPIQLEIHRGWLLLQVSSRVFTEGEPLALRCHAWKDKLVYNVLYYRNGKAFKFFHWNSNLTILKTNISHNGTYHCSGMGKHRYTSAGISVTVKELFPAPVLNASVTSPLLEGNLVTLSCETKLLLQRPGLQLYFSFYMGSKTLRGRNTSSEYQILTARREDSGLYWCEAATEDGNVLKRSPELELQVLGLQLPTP

[5] = target: recombinant biotinylated human Fc gamma receptor IIa (FcγRIIa/CD32a 167H) (human) (UniProt P12318); assay: AlphaLISA competition; test molecule titrated against human IgG Fc acceptor beads for biotinylated FcγRIIa
Sequence of recombinant biotinylated human Fc gamma receptor IIa (FcγRIIa/CD32a 167H) (human) (P12318 36-218 limits assumed): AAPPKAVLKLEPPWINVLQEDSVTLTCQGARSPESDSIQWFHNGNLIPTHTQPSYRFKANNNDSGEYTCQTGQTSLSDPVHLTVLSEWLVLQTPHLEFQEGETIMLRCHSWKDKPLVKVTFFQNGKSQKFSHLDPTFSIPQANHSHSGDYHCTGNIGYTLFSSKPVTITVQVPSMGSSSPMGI

Sequence of Fc gamma receptor IIb (FcgRIIb, CD32b) (human) (P31994 46-217 limits assumed): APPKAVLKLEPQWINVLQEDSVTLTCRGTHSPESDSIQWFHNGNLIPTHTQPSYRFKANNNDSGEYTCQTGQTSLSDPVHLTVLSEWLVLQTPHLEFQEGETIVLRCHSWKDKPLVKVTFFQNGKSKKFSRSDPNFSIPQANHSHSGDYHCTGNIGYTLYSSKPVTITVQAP
Sequence of recombinant biotinylated human neonatal Fc receptor (FcRn) (human) (P55899 24-297 limits assumed, chain 1 of 2): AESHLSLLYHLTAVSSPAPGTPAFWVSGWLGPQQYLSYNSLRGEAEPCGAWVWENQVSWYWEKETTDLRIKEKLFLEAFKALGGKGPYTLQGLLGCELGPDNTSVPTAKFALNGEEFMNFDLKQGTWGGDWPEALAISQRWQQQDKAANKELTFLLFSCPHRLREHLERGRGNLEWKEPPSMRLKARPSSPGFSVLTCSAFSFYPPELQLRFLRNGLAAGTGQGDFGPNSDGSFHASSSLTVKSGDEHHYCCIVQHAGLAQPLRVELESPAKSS
Sequence of recombinant biotinylated human neonatal Fc receptor (FcRn) (human) (chain, as listed by the source limits assumed, chain 2 of 2): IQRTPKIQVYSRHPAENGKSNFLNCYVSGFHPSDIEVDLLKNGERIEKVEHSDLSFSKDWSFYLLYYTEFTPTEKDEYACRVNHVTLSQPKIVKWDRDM

B1: CMP-016 (LZM-009 conjugated to CMP-003, DAR 1, K248) (antibody)
VH: QVQLVQSGAEVKKPGASVKVSCKASGYTFTSYYMYWVRQAPGQGLEWMGGVNPSNGGTNFNEKFKSRVTITADKSTSTAYMELSSLRSEDTAVYYCARRDYRYDMGFDYWGQGTTVTVSS
VL: EIVLTQSPATLSLSPGERATISCRASKGVSTSGYSYLHWYQQKPGQAPRLLIYLASYLESGVPARFSGSGSGTDFTLTISSLEPEDFATYYCQHSRELPLTFGTGTKVEIK
chain: APTSSSTKKTQLQLEHLLLDLQXILNGINNYKNPKLTRXLXYKFYXPKKATELKHLQCLEEELKPLEEVLXLAQSKNFHLRPRDLISNINVIVLELKGSETTFXCEYADETATIVEFLNRWITFSQSIISTLT
modifications: not fully specified; Nle at 23, 39, 46 and Hse at 41, 71, 104 (as in SEQ ID NO: 3); ~0.5 kDa PEG on Y45; 0.5 kDa PEG on F42Y whose azide end is joined to the DBCO linker of the antibody; the heavy chain carries a chemical linker to CMP-003 on Lys K248 (Eu numbering) of the Fc; DAR 1
Question: B1 was tested. Which Kd [1] did it give?
Answer: 4710 nM

Question: What about the Kd [2] of the same binder?
Answer: 25.3 nM

Question: What about the Kd [3] of the same binder?
Answer: 481 nM

Question: And the Kd [4]?
Answer: 3.81 nM

Question: And the Kd [5]?
Answer: 1140 nM

B2: CMP-028 (LZM-009 conjugated to CMP-003, DAR 1.9, K288) (antibody)
VH: B1 VH
VL: B1 VL
chain: B1 chain
modifications: not fully specified; Nle at 23, 39, 46 and Hse at 41, 71, 104 (as in SEQ ID NO: 3); ~0.5 kDa PEG on Y45; 0.5 kDa PEG on F42Y whose azide end is joined to the DBCO linker of the antibody; the heavy chain carries a chemical linker to CMP-003 on Lys K288 (Eu numbering) of the Fc; DAR 1.9
Question: Which results are given for B2?
Answer: Kd [1]: 3340 nM; Kd [2]: 27.1 nM; Kd [3]: 5410 nM; Kd [4]: 12 nM; Kd [5]: 1870 nM

B3: CMP-102 (LZM-009 conjugated to CMP-003, DAR 1, K288) (antibody)
VH: B1 VH
VL: B1 VL
chain: B1 chain
modifications: not fully specified; Nle at 23, 39, 46 and Hse at 41, 71, 104 (as in SEQ ID NO: 3); ~0.5 kDa PEG on Y45; 0.5 kDa PEG on F42Y whose azide end is joined to the DBCO linker of the antibody; the heavy chain carries a chemical linker to CMP-003 on Lys K288 (Eu numbering) of the Fc; DAR 1
Question: Which Kd [1] does the source give for B3 here?
Answer: 6680 nM

Question: What about the Kd [2] of the same binder?
Answer: 10.7 nM

Question: What about the Kd [3] of the same binder?
Answer: 272 nM

Question: And the Kd [4]?
Answer: 2.3 nM

Question: What about the Kd [5] of the same binder?
Answer: 1180 nM
